Measurements from PMC6797804, “Histone H3K23-specific acetylation by MORF is coupled to H3K14 acylation” (Nature Communications, 2019).
Ends that are not written are not given here. * marks the point of attachment. Crotonyl(E) = C/C=C/C(=O)*; Butyryl = CCCC(=O)*

Columns and labels:
[1] = molecular target: T1, MORF DPF domain (residues 211–322) F287A (human, UniProt Q8WYB5 211-322, F287A); assay: cell-based or functional assay
T1 sequence (looked up): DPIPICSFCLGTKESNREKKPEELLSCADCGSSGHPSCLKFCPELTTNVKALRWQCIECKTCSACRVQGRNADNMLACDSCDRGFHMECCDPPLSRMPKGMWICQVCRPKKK

[2] = molecular target: T2, MORF DPF domain (residues 211–322), wild type (human, UniProt Q8WYB5 211-322); assay: other fluorescence titration; tryptophan fluorescence, 25 °C; 0.8–2 µM MORFDPF in PBS pH 6.5 with 5 mM DTT, increasing concentrations of H3 peptides (residues 1–19); excitation 295 nm; conditions: both partners purified
T2 construct: MORF (KAT6B) double PHD finger (DPF), residues 211–322; The methods say the GST tag was either cleaved with thrombin or left on; also called WT MORFDPF; DPF domain of MORF; source: E. coli Rosetta2 (DE3) pLysS, purified (glutathione Sepharose 4B, size exclusion); unlabeled or 15N-labeled
T2 sequence (looked up): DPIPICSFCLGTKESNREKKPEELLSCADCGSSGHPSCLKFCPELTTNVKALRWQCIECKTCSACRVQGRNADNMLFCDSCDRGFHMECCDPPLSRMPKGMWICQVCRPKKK

[3] = molecular target: T3, MORF DPF domain (residues 211–322) F218A (human, UniProt Q8WYB5 211-322, F218A); assay: as above; conditions: both partners purified
T3 construct: MORF (KAT6B) double PHD finger (DPF), residues 211–322; also called MORFDPF F218A mutant; source: E. coli Rosetta2 (DE3) pLysS, purified (glutathione Sepharose 4B, size exclusion)
T3 sequence (looked up): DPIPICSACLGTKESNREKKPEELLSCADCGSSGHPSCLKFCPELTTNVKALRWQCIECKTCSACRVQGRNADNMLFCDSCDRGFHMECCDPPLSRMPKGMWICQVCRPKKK

[4] = molecular target: T1, MORF DPF domain (residues 211–322) F287A; assay: NMR titration; 1H,15N HSQC at 298 K; H3 peptides (residues 1–19) titrated into 0.1–0.25 mM 15N-labeled WT or mutated MORFDPF in 1×PBS pH 6.5, 5 mM DTT, 8–10% D2O; conditions: both partners purified

B1: histone H3K14cr peptide (residues 1–19 of H3) (peptide, UniProt P68431 2-20, looked up)
peptide: ARTKQTARKSTGGK(Crotonyl(E))APRKQ
notes: histone H3 N-terminal tail, residues 1–19; source: synthetic peptide
HAT activity of the MORFN F287A complex against the wild-type MORFN complex on H3K14cr peptide (residues 1–29), liquid HAT assay [1]: 2 fold | Kd [2]: 700 nM | binding result [3]: binds

B2: unmodified histone H3 peptide (residues 1–19 of H3) (peptide, UniProt P68431 2-20, looked up)
peptide: ARTKQTARKSTGGKAPRKQ
notes: as for B1
fold decrease in binding against the WT protein [4]: ~1000 fold

B3: histone H3K14bu peptide (residues 1–19 of H3) (peptide, UniProt P68431 2-20, looked up)
peptide: ARTKQTARKSTGGK(Butyryl)APRKQ
notes: as for B1
binding result [3]: binds
